Residue numbers refer to the chain shown, from its start.
T1: human GIP receptor (human, UniProt P48546 22-466)
T1 sequence (looked up): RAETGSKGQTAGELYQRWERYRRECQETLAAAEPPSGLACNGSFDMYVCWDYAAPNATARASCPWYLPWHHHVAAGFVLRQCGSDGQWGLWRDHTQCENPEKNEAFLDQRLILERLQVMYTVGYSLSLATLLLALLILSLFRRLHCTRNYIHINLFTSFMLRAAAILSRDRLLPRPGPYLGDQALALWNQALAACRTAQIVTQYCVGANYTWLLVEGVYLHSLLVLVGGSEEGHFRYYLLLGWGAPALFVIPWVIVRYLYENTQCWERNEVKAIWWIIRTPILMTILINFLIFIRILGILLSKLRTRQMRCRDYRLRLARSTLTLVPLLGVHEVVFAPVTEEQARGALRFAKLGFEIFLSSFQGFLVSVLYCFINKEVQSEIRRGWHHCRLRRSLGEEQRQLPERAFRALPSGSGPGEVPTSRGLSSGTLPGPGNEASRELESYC

B1: Example 449 (peptide)
peptide: YXEGTXTSDXXIXLDXQAQXXFIKXLIKGGPSSGAPPPS
modifications: not fully specified; Y-Aib-EGT-αMeF(2F)-TSD-4Pal-Aib-I-αMeL-LD-Orn-QAQ-Aib-Orn-FIK((2-[2-(2-Amino-ethoxy)-ethoxy]-acetyl)-Ahx-(γ-Glu)-CO-(CH2)12-CO2)-αMeY-LIK((2-[2-(2-Amino-ethoxy)-ethoxy]-acetyl)-Ahx-(γ-Glu)-CO-(CH2)12-CO2)GGPSSGAPPPS-NH2
B2: Example 470 (peptide)
peptide: B1 peptide
modifications: Y-Aib-EGT-αMeF(2F)-TSD-4Pal-Aib-I-αMeL-LD-Orn-QAQ-Aib-Orn-FIK((2-[2-(2-Amino-ethoxy)-ethoxy]-acetyl)2--Trx-(γ-Glu)-CO-(CH2)12-CO2H)-αMeY-LIK(((2-[2-(2-Amino-ethoxy)-ethoxy]-acetyl)2--Trx(γ-Glu)-CO-(CH2)12-CO2H)GGPSSGAPPPS-NH2)
B3: Example 462 (peptide)
peptide: B1 peptide
modifications: Y-Aib-EGT-αMeF(2F)-TSD-4Pal-Aib-I-αMeL-LD-Orn-QAQ-Aib-Orn-FIK(PEG3-(γ-Glu)-(10-(4-carboxyphenoxy)decanoyl))-αMeY-LIK(PEG3-(γ-Glu)-(10-(4-carboxyphenoxy)decanoyl))GGPSSGAPPPS-NH2
B4: Example 457 (peptide)
peptide: B1 peptide
modifications: Y-Aib-EGT-αMeF(2F)-TSD-4Pal-Aib-I-αMeL-LD-Orn-QAQ-Aib-Orn-FIK(PEG4-(γ-Glu)-CO-(CH2)12-CO2H)-αMeY-LIK(PEG4-(γ-Glu)-CO-(CH2)12-CO2H)GGPSSGAPPPS-NH2
B5: Example 463 (peptide)
peptide: B1 peptide
modifications: Y-Aib-EGT-αMeF(2F)-TSD-4Pal-Aib-I-αMeL-LD-Orn-QAQ-Aib-Orn-FIK((2-[2-(2-Amino-ethoxy)-ethoxy]-acetyl)-(γ-Glu)-(10-(4-carboxyphenoxy)decanoyl))-αMeY-LIK((2-[2-(2-Amino-ethoxy)-ethoxy]-acetyl)-(γ-Glu)-(10-(4-carboxyphenoxy)decanoyl))GGPSSGAPPPS-NH2
B6: Example 481 (peptide)
peptide: B1 peptide with X10Y, Q17I
modifications: Y-Aib-EGT-αMeF(2F)-TSDY-Aib-I-αMeL-LD-Orn-IAQ-Aib-Orn-FIK((2-[2-(2-Amino-ethoxy)-ethoxy]-acetyl)3-(γ-Glu)--(10-(4-carboxyphenoxy)decanoyl))-αMeY-LIK((2-[2-(2-Amino-ethoxy)-ethoxy]-acetyl)3-(γ-Glu)--(10-(4-carboxyphenoxy)decanoyl))GGPSSGAPPPS-NH2
B7: Example 479 (peptide)
peptide: B1 peptide with X10Y
modifications: Y-Aib-EGT-αMeF(2F)-TSDY-Aib-I-αMeL-LD-Orn-QAQ-Aib-Orn-FIK((2-[2-(2-Amino-ethoxy)-ethoxy]-acetyl)3-(γ-Glu)-CO-(CH2)12-CO2H)-αMeY-LIK((2-[2-(2-Amino-ethoxy)-ethoxy]-acetyl)3-(γ-Glu)-CO-(CH2)12-CO2H)GGPSSGAPPPS-NH2
B8: Example 483 (peptide)
peptide: B1 peptide
modifications: Y-Aib-EGT-αMeF(2F)-TSD-4Pal-Aib-I-αMeL-LD-Orn-QAQ-Aib-Orn-FIK((γ-Glu)-(2-[2-(2-Amino-ethoxy)-ethoxy]-acetyl)2-(γ-Glu)-(10-(4-carboxyphenoxy)decanoyl))-αMeY-LIK((γ-Glu)-(2-[2-(2-Amino-ethoxy)-ethoxy]-acetyl)2-(γ-Glu)-(10-(4-carboxyphenoxy)decanoyl))GGPSSGAPPPS-NH2
B9: Example 492 (peptide)
peptide: B1 peptide with X10Y
modifications: Y-Aib-EGT-αMeF(2F)-TSDY-Aib-I-αMeL-LD-Orn-QAQ-Aib-Orn-FIK((2-[2-(2-Amino-ethoxy)-ethoxy]-acetyl)2-(γ-Glu)--C10_4CP)-αMeY-LIK((2-[2-(2-Amino-ethoxy)-ethoxy]-acetyl)2-(γ-Glu)--C10_4CP)GGPSSGAPPPS-NH2
B10: Example 477 (peptide)
peptide: B1 peptide
modifications: Y-Aib-EGT-αMeF(2F)-TSD-4Pal-Aib-I-αMeL-LD-Orn-QAQ-Aib-Orn-FIK((2-[2-(2-Amino-ethoxy)-ethoxy]-acetyl)3-(γ-Glu)--(10-(4-carboxyphenoxy)decanoyl))-αMeY-LIK((2-[2-(2-Amino-ethoxy)-ethoxy]-acetyl)3-(γ-Glu)--(10-(4-carboxyphenoxy)decanoyl))GGPSSGAPPPS-NH2
B11: Example 472 (peptide)
peptide: B1 peptide
modifications: Y-Aib-EGT-αMeF(2F)-TSD-4Pal-Aib-I-αMeL-LD-Orn-QAQ-Aib-Orn-FIK((2-[2-(2-Amino-ethoxy)-ethoxy]-acetyl)-Trx-(γ-Glu)-CO-(CH2)12-CO2H)-αMeY-LIK(((2-[2-(2-Amino-ethoxy)-ethoxy]-acetyl)-Trx-(γ-Glu)-CO-(CH2)12-CO2H)GGPSSGAPPPS-NH2)
B12: Example 453 (peptide)
peptide: B1 peptide
modifications: Y-Aib-EGT-αMeF(2F)-TSD-4Pal-Aib-I-αMeL-LD-Orn-QAQ-Aib-Orn-FIK((2-[2-(2-Amino-ethoxy)-ethoxy]-acetyl)-Ahx-(γ-Glu)-(10-(4-carboxyphenoxy)decanoyl))-αMeY-LIK((2-[2-(2-Amino-ethoxy)-ethoxy]-acetyl)-Ahx-(γ-Glu)-(10-(4-carboxyphenoxy)decanoyl))GGPSSGAPPPS-NH2
B13: Example 466 (peptide)
peptide: B1 peptide
modifications: Y-Aib-EGT-αMeF(2F)-TSD-4Pal-Aib-I-αMeL-LD-Orn-QAQ-Aib-Orn-FIK(PEG6-(γ-Glu)-CO-(CH2)12-CO2H)-αMeY-LIK(PEG6-(γ-Glu)-CO-(CH2)12-CO2H)GGPSSGAPPPS-NH2
B14: Example 474 (peptide)
peptide: B1 peptide
modifications: Y-Aib-EGT-αMeF(2F)-TSD-4Pal-Aib-I-αMeL-LD-Orn-QAQ-Aib-Orn-FIK((2-[2-(2-Amino-ethoxy)-ethoxy]-acetyl)2-(γ-Glu)2-CO-(CH2)12-CO2H)-αMeY-LIK((2-[2-(2-Amino-ethoxy)-ethoxy]-acetyl)2-(γ-Glu)2-CO-(CH2)12-CO2H)GGPSSGAPPPS-NH2
B15: Example 451 (peptide)
peptide: B1 peptide
modifications: not fully specified; Y-Aib-EGT-αMeF(2F)-TSD-4Pal-Aib-I-αMeL-LD-Orn-QAQ-Aib-Orn-FIK(Ahx-(2-[2-(2-Amino-ethoxy)-ethoxy]-acetyl)-(γ-Glu)-CO-(CH2)12-CO2)-αMeY-LIK(Ahx-(2-[2-(2-Amino-ethoxy)-ethoxy]-acetyl)-(γ-Glu)-CO-(CH2)12-CO2)GGPSSGAPPPS-NH2
B16: Example 491 (peptide)
peptide: B1 peptide with X11S
modifications: Y-Aib-EGT-αMeF(2F)-TSD-hY-SI-αMeL-LD-Orn-QAQ-Aib-Orn-FIK((2-[2-(2-Amino-ethoxy)-ethoxy]-acetyl)2-(γ-Glu)-CO-(CH2)12-CO2H)-αMeY-LIK((2-[2-(2-Amino-ethoxy)-ethoxy]-acetyl)2-(γ-Glu)-CO-(CH2)12-CO2H)GGPSSGAPPPS-NH2
B17: Example 485 (peptide)
peptide: B1 peptide
modifications: Y-Aib-EGT-αMeF(2F)-TSD-4Pal-Aib-I-αMeL-LD-Orn-QAQ-Aib-Orn-FIK((2-[2-(2-Amino-ethoxy)-ethoxy]-acetyl)-(γ-Glu)-(2-[2-(2-Amino-ethoxy)-ethoxy]-acetyl)-(γ-Glu)-(10-(4-carboxyphenoxy)decanoyl))-αMeY-LIK((2-[2-(2-Amino-ethoxy)-ethoxy]-acetyl)-(γ-Glu)-(2-[2-(2-Amino-ethoxy)-ethoxy]-acetyl)-(γ-Glu)-(10-(4-carboxyphenoxy)decanoyl))GGPSSGAPPPS-NH2
B18: Example 458 (peptide)
peptide: B1 peptide
modifications: Y-Aib-EGT-αMeF(2F)-TSD-4Pal-Aib-I-αMeL-LD-Orn-QAQ-Aib-Orn-FIK(PEG3-(γ-Glu)-CO-(CH2)12-CO2H)-αMeY-LIK(PEG3-(γ-Glu)-CO-(CH2)12-CO2H)GGPSSGAPPPS-NH2
B19: Example 475 (peptide)
peptide: B1 peptide
modifications: Y-Aib-EGT-αMeF(2F)-TSD-4Pal-Aib-I-αMeL-LD-Orn-QAQ-Aib-Orn-FIK((2-[2-(2-Amino-ethoxy)-ethoxy]-acetyl)2-(γ-Glu)2--(10-(4-carboxyphenoxy)decanoyl))-αMeY-LIK((2-[2-(2-Amino-ethoxy)-ethoxy]-acetyl)2-(γ-Glu)2--(10-(4-carboxyphenoxy)decanoyl))GGPSSGAPPPS-NH2

target: T1, human GIP receptor; experiment: cell-based or functional assay

Row | Binder | cAMP EC50 (1.0% HSA) | cAMP Emax (1.0% HSA)
1 | B1 | 0.595 nM | 
2 | B2 | 0.719 nM | 
3 | B3 | 0.317 nM | 
4 | B4 | 0.334 nM | 
5 | B5 | 0.35 nM | 
6 | B6 | 0.467 nM | 
7 | B7 | 0.196 nM | 89.5%
8 | B8 | 0.297 nM | 
9 | B9 | 0.371 nM | 88.7%
10 | B10 | 0.163 nM | 
11 | B11 | 0.663 nM | 76.3%
12 | B12 | 0.451 nM | 
13 | B13 | 0.314 nM | 
14 | B14 | 0.156 nM | 
15 | B15 | 0.518 nM | 
16 | B16 | 1.08 nM | 87.5%
17 | B17 | 0.536 nM | 
18 | B18 | 0.726 nM | 
19 | B19 | 0.211 nM | 

target: human glucagon receptor (human, UniProt P47871 26-477); experiment: cell-based or functional assay
Sequence (P47871 26-477): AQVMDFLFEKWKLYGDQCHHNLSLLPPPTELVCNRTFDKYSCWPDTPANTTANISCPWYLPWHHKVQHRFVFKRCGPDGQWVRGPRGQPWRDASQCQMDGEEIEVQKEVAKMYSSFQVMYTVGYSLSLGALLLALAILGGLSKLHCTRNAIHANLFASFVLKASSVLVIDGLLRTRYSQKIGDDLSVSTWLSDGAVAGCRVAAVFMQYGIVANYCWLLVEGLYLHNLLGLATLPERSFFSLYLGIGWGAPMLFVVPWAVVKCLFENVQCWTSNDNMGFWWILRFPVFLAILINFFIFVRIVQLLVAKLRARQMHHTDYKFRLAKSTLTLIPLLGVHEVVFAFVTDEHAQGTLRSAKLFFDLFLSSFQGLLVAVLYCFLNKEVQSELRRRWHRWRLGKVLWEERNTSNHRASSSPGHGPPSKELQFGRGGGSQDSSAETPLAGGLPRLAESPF

Row | Binder | cAMP EC50 (1.0% HSA)
20 | B1 | > 9950 nM
21 | B2 | > 9950 nM
22 | B3 | > 9950 nM
23 | B4 | > 9950 nM
24 | B5 | > 9950 nM
25 | B6 | > 9950 nM
26 | B7 | > 9950 nM
27 | B8 | > 9950 nM
28 | B9 | > 9950 nM
29 | B10 | > 9950 nM
30 | B11 | > 9950 nM
31 | B12 | > 9950 nM
32 | B13 | > 10100 nM
33 | B14 | > 9950 nM
34 | B15 | > 9950 nM
35 | B16 | > 9950 nM
36 | B17 | > 9950 nM
37 | B18 | > 9950 nM
38 | B19 | > 9950 nM

target: human GLP-1 receptor (human, UniProt P43220 24-463); experiment: cell-based or functional assay

Row | Binder | cAMP EC50 (1.0% HSA) | cAMP Emax (1.0% HSA)
39 | B1 | 7.27 nM | 
40 | B2 | 4.54 nM | 
41 | B3 | 3.34 nM | 
42 | B4 | 4.69 nM | 
43 | B5 | 4.09 nM | 
44 | B6 | 6.16 nM | 112%
45 | B7 | 2.55 nM | 
46 | B8 | 3.33 nM | 
47 | B9 | 4.31 nM | 104%
48 | B10 | 1.56 nM | 
49 | B11 | 7.41 nM | 
50 | B12 | 5.47 nM | 
51 | B13 | 3.32 nM | 
52 | B14 | 1.1 nM | 
53 | B15 | 7.23 nM | 
54 | B16 | 5.51 nM | 
55 | B17 | 3.9 nM | 
56 | B18 | 7.61 nM | 
57 | B19 | 1.44 nM | 

From US20230265151A1, “GIP/GLP1 CO-AGONIST COMPOUNDS” (priority 2020, published 2023)
